Experimental data from US9359634B2, “Fast reaction kinetics of enzymes having low activity in dry chemistry layers” (Roche Diabetes Care, Inc., priority 2009, dated 2016).
Substitutions are numbered along the chain they refer to. Read-outs that look alike come from different tables or passages of the source.

B1: WT-GlucDH: wild type (native) glucose dehydrogenase from Bacillus subtilis (protein, listed as Bacillus subtilis)
chain: MYPDLKGKVVAITGAASGLGKAMAIRFGKEQAKVVINYYSNKQDPNEVKEEVIKAGGEAVVVQGDVTKEEDVKNIVQTAIKEFGTLDIMINNAGLENPVPSHEMPLKDWDKVIGTNLTGAFLGSREAIKYFVENDIKGNVINMSSVHEVIPWPLFVHYAASKGGIKLMTETLALEYAPKGIRVNNIGPGAINTPINAEKFADPKQKADVESMIPMGYIGEPEEIAAVAVWLASKESSYVTGITLFADGGMTKYPSFQAGRG
B2: GlucDH_E170K_K252L (protein)
chain: B1 chain with E170K, K252L
modifications: Mutant of glucose dehydrogenase from Bacillus subtilis
B3: GlucDH_E170K (protein, UniProt P12310 1-261, looked up, variant E170K)
Glucose 1-dehydrogenase: B1 chain with E170K, V229A, S236A, K252Q

Assays:
Type in all cases: biochemical
[1] = system: glucose dehydrogenase from Bacillus subtilis; assay: Enzyme activity before and after temperature stress (stress test) of clones; settings: stress test: 30 min at 50° C.; tested in Escherichia coli XL1blue MRF′
Description: The PCR product obtained was transformed into Escherichia coli XL1blue MRF′. The cells were plated out, clones containing plasmid were cultured overnight and the enzyme activity was determined before and after temperature stress (stress test: 30 min at 50° C.).

[2] = molecular target: T1, glucose dehydrogenase from Bacillus subtilis (Bacillus subtilis, UniProt P12310, A229V/A236S/Q252K); settings: test strips, coenzyme NAD, blood with adjusted glucose values; 1556.2 to 25.10 kU/100 g mass
[3] = system: glucose dehydrogenase from Bacillus subtilis; settings: for activity, U/mg enzyme / activity, U/mg lyophilisate: cuvette, 25° C., 340 nm; for % U/mg lyophilisate relative to NAD: coenzyme carbaNAD relative to NAD; for activity with carbaNAD compared with activity with NAD: standardized conditions in a cuvette
[4] = molecular target: T1, glucose dehydrogenase from Bacillus subtilis; settings: enzyme used in the test strips; coenzyme NAD
[5] = molecular target: T2, glucose dehydrogenase from Bacillus subtilis (Bacillus subtilis, UniProt P12310, A229V/A236S/E170K/Q252L); settings: test strips, coenzyme carbaNAD, 4.60 kU/100 g mass; versus all wild type/NAD formulations of table 3
[6] = molecular target: T2, glucose dehydrogenase from Bacillus subtilis; settings: enzyme used in the test strips; coenzyme carbaNAD

T2 sequence (P12310 whole entry E170K/A229V/A236S/Q252L): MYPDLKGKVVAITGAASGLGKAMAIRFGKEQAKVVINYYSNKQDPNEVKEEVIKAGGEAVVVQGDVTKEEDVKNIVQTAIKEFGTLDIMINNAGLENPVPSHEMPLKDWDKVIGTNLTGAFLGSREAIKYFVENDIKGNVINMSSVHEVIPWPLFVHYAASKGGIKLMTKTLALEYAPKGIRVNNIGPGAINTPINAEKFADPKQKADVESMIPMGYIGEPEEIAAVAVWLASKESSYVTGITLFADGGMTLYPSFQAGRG

Molecule	residual activity after stress (%) [1]	kinetics of the conversion of glucose [2]	Vmax (U/mg lyophilsate) [3]	Km ([3]; coenzyme NAD)	activity, U/mg enzyme ([3]; coenzyme NAD)	activity, U/mg lyophilisate ([3]; coenzyme NAD)	Km ([3]; coenzyme carbaNAD)	Vmax (U/mg lyophilisate) ([3]; coenzyme carbaNAD)	% U/mg lyophilisate relative to NAD [3]	activity, U/mg enzyme ([3]; coenzyme carbaNAD)	activity, U/mg lyophilisate ([3]; coenzyme carbaNAD)	activity with carbaNAD compared with activity with NAD [3]	lyophilisate activity (U/mg) [4]	kinetics of the conversion of glucose [5]	lyophilisate activity (U/mg) [6]
B1	23%	worsened with a decreasing enzyme content	122	80 µM	484 U/mg enzyme	203 U/mg lyophilisate	300 µM	3 U/mg lyophilisate	1.7%	8.2 U/mg enzyme	3.4 U/mg lyophilisate	two orders of magnitude lower	251 U/mg	–	–
B2	130%	–	144	70 µM	270 U/mg enzyme	167 U/mg lyophilisate	1400 µM	13 U/mg lyophilisate	1.4%	3.7 U/mg enzyme	2.3 U/mg lyophilisate	about two orders of magnitude lower	–	better kinetics	2.3 U/mg
B3	80%	–	–	–	–	–	–	–	–	–	–	–	–	–	–
